Experimental data: article doi:10.1101/164319

Molecular target: Arp2/3 complex from strain Arp2cys-Arp3cys, labeled with Alexa 488 and Alexa 594 (Schizosaccharomyces pombe) (UniProt P78774)
Assay: FRET or BRET

Chain of UniProt P78774 (P78774 whole entry, looked up, one chain of several): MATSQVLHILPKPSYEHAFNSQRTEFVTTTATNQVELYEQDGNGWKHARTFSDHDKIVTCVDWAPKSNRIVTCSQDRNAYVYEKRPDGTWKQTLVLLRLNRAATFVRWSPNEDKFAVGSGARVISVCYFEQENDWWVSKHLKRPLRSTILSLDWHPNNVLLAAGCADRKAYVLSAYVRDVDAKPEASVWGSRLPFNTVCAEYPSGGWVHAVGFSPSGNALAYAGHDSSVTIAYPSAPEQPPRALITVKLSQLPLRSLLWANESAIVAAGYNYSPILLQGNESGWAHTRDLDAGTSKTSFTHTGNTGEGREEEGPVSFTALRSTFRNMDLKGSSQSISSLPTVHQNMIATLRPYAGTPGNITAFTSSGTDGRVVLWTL

S. pombe Wsp1-CA (541SC–574D) (from UniProt O36027 541-574) (domain or fragment)
increase of mean ETeff at 20 μM CA: 0.06

S. pombe Wsp1p-VCA (497Q–574D) (from UniProt O36027 497-574) (domain or fragment)
increase of mean ETeff at 20 μM VCA: 0.13

VCA crosslinked to an actin monomer (actin-VCA) (from UniProt O36027 497-574; P68139 1-377) (complex)
increase of mean ETeff at 2 μM actin-VCA: 0.12
